Measurements reported in patent publication US6623741.

Legend:
[1] = molecular target: viral gp41 of HIV-1 (on HIV-1 virions and HIV-1 infected cells) (HIV-1) (UniProt P04578); assay: cell-based or functional assay
[2] = molecular target: MF-IV (MF5.1): E. coli maltose binding protein fused to RSV F protein residues 142-302 (E. coli; respiratory syncytial virus (strain A2)) (UniProt P03420); assay: competitive binding assay (B50) on the MF5.1 fusion protein; reference T112
[3] = molecular target: MF-IV (MF5.1): E. coli maltose binding protein fused to RSV F protein residues 142-302 (E. coli; respiratory syncytial virus (strain A2)) (UniProt P03420); assay: competitive binding assay (B50) on the MF5.1 fusion protein (DP107 target)

Substance	Cell Fusion (IC90) [1]	HIV-infectivity (IC90) [1]	fold lower binding affinity than T112 [2]	binding affinity [3]
M41 (maltose binding protein fused to the extracellular domain of HIV-1 gp41, residues 540-686) (from UniProt P03377 540-686)	> 50 µM	> 0.016 µM		
T1091 (peptide)			10 fold	19 nM
DP178 (peptide)	0.001 µM	0.08 µM		
DP107 (peptide)	1 µM	1 µM		
M41-P (M41 with Ile to Pro mutation at position 578) (from UniProt P03377 540-686)	0.083 µM	0.066 µM		
M41-PΔ178 (M41Δ178 with the Ile to Pro mutation at position 578) (from UniProt P03377 540-642)	> 50 µM	> 8 µM		
